B1: SEQ ID NO 165 (designed binder)
chain: MLPARKNLVVSRVTEDSARLSWTAPDAAFDSFFIPYAEPSPTGEAIVLTVPGSERSYDLTGLKPGTEYSVLIHGVKGGHLSDPLSAISTT
B2: SEQ ID NO 166 (designed binder)
chain: MLPAPKNLVVSRVTEDSARLSWTAPDAAFDSFTILYNEIQNVGEAIVLTVPGSERSYDLTGLKPGTEYDVWIEGVKGGELSWPLSAIFTT
B3: SEQ ID NO 43 (designed binder)
chain: MLPAPKNLVVSRVTEDSARLSWTAPDAAFDSFYIEYYESYPGGEAIVLTVPGSERSYDLTGLKPGTEYDVYIYGVKGGYWSRPLSAIFTT
B4: SEQ ID NO 168 (designed binder)
chain: MLPAPKNLVVSRVTEDSARLSWTTPDAAFDSFFIGYLEPYPPGEAIVLTVPGSERSYDLTGLKPGTEYVVSIQGVKGGKPSDPLSAIFTT
B5: SEQ ID NO 170 (designed binder)
chain: MLPAPKNLVVSRVTEDSARLSWTAPDAAFDSFFIGYPEYPATGEAIVLTVPGSERSYDLTGLKPGTEYFVDINGVKGGSLSYPLSAIFTT
B6: SEQ ID NO 171 (designed binder)
chain: MLPAPKNLVVSRVTEDSARLSWTAPDAAFDSFAIRYLEWWDVGEAIVLTVPGSERSYDLTGLKPGTEYLVEIKGVKGGKFSYPLSAIFTT
B7: SEQ ID NO 172 (designed binder)
chain: MLPAPKNLVVSRVTEDSARLSWTAPDAAFDSFPIEYDEWWALGEAITLIVPASERSYDLTGLKPGTEYVVKIHGVKGGQRSYPLIAFFTT
B8: SEQ ID NO 173 (designed binder)
chain: MLPAPKNLVVSRVTEDSARLSWTAPDAAFDSFTIHYRELYVQAIVLTVPGSERSYDLTGLKPGTEYLVMIPGVKGGPTSVPLSAIFTT
B9: SEQ ID NO 174 (designed binder)
chain: MLPAPKNLVVSRVTEDSARLSWTAPDAAFDSFFIGYLEPQPPGEAIVLTVPGSERSYDLTGLKPGTEYKVVIQGVKGGTPSEPLSAIFTT
B10: SEQ ID NO 175 (designed binder)
chain: MLPAPKNLVVSRVTEDSARLSWTAPDAAFDSFFIGYLEPQPPGEAIVLTVPGSERSYDLTGLKPGTEYSVVIQGVKGGFPSDPLSAIFTT
B11: SEQ ID NO 176 (designed binder)
chain: MLPAPKNLVVSRVTEDSARLSWTAPDAAFDSFPIAYAEPRPDGEAIVLTVPGSERSYDLTGLKPGTEYSVGIHGVKGGHDSSPLSAIFTT
B12: SEQ ID NO 44 (designed binder)
chain: MLPAPKNLVVSRVTEDSARLSWTAPDAAFDSFYIEYYESLPDGEAIVLTVPGSERSYDLTGLKPGTEYAVYIYGVKGGYYSRPLSAIFTT
B13: SEQ ID NO 177 (designed binder)
chain: MLPAPKNLVVSRVTEDSARLSWTAPDAAFDSFFIGYLEPQPPGEAIVLTVPGSERSYDLTGLKPGTEYNVTIQGVKGGRASGPLSAIFTT
B14: SEQ ID NO 178 (designed binder)
chain: MLPAPKNLVVSRVTEDSARLSWTAPDAAFDSFDIAYAEPIPRGEAIVLTVPGSERSYDLTGLKPGTEYSVLIHGVKGGRRSVPLSAIFTT
B15: SEQ ID NO 179 (designed binder)
chain: MLPAPKNLVVSRVTEDSARLSWTAPDAAFDSFYIAYAEPRPDGEAIVLTVPGSERSYDLTGLKPGTEYPVPIPGVKGGPGSSPLSAIFTT
B16: SEQ ID NO 180 (designed binder)
chain: MLPAPKNLVVSRVTEDSARLSWTAPDAAFDSFEISYYEMRGYGEAIVLTVPGSERSYDLTGLKPGTEYSVLIHGVEGGDYSSPLSAISTT
B17: SEQ ID NO 181 (designed binder)
chain: MLPAPKNLVVSHVTEDSARLSWTAPDAAFDSFPIAYAEPRPDGEAIVLTVPGSERSYDLTGLKPGTEYSVLIHGVKGGLLSSPLSAIFTT
B18: SEQ ID NO 182 (designed binder)
chain: MLPAPKNLVVSRVTEDSARLSWTAPDAAFDSFFIGYLEPYPPGEAIVLTVPGSERSYDLTGLKPGTEYVVSIQGVKGGTPSQPLSAIFTT
B19: SEQ ID NO 183 (designed binder)
chain: MLPAPKNLVVSRVTEDSARLSWTAPDAAFDSFLIPYAETSPSGEAIVLTVPGSERSYDLTGLKPGTEYSVLIHGVKGGRPSNPLVAAFTT
B20: SEQ ID NO 185 (designed binder)
chain: MLPAPKNLVVSRVTEDSARLSWTAPDAAFDSFEIDYDELAIYGEAIVLTVPGSERSYDLTGLKPGTEYGVMIIGVKGGLPSDPLSAIFTT
B21: SEQ ID NO 186 (designed binder)
chain: MLPAPKNLVVSRVTEDSARLSWTAPDAAFDSFFIGYLESAEAIVLTVPGSERSYDLTGLKPGTEYLVTIQGVKGGIASDPLSAIFTT
B22: SEQ ID NO 45 (designed binder)
chain: MLPAPKNLVVSRVTEDSARLSWTAPDAAFDSFAIYYLESYPEGEAIVLTVPGSERSYDLTGLKPGTEYWVGIDGVKGGTWSSPLSAIFTT
B23: SEQ ID NO 187 (designed binder)
chain: MLPAPKNLVVSRVTEDSARLSWTAPDAAFDSFVIEYFEFVGYGEAIVLTVPGSERSYDLTGLKPGTEYSVGIYGVKGGKLSPPLSAIFTT
B24: SEQ ID NO 188 (designed binder)
chain: MLPAPKNLVVSRVTEDSARLSWTAPDAAFDSFLIPYAETSPSGEAIVLTVPGSERSYDLTGLKPGTEYSVLIHGVKGGKLSLPLSAIFTT
B25: SEQ ID NO 189 (designed binder)
chain: MLPAPKNLVVSRVTEDSARLSWTAPDAAFDSFHEWVYFGEAIVLTVPGSERSYDLTGLKPGTEYFVDIWGVKGGTVSKPLSAIFTT
B26: SEQ ID NO 190 (designed binder)
chain: MLPAPKNLVVSRVTEDSARLSWTAPDAAFDSFFIGYPEYPATGEAITLFVPGSERSYDLTGLKPGTEYNVVIQGVKGGRPSNPLVVAFTT
B27: SEQ ID NO 191 (designed binder)
chain: MLPAPENLVVSRVTEDSARLSWTAPDAAFDSFEITYEENWRRGEAIVLTVPGSERSYDLTGPKPGTEYIVIIQGVKGGAESWPLSAIFTT
B28: SEQ ID NO 192 (designed binder)
chain: MLPAPKNLVVSRVTEDSARLSWTALDAAFDSFFIGYLEPQPPGEAIVLTVPGSERSYDLTGLKPGTEYNVTIQGVKGGFPSMPLSAIFTT
B29: SEQ ID NO 193 (designed binder)
chain: MLPAPKNLVVSRVTEDSARLSWTAPDAAFDSFTIWYAEAVGNGEAIVLTVPGSERSYDLTGLKPGTEYWVDIWGVKGGEFSSPLSAIFTT
B30: SEQ ID NO 194 (designed binder)
chain: MLPAPKNLVVSRVTEDSARLSWTAPDAAFDSFEIDYDELAIYGEAIVLTVPGSERSYDLTGLKPGTEYRVFIYGVKGGWTSWPLSTIFTT
B31: SEQ ID NO 195 (designed binder)
chain: MLPAPKNLVVSRVTEDSARLSWTAPDAAFDSFPIEYDEIPFWGEAIVLTVPGSERSYDLTGLKPGTEYRVWIHGVKGGNSSWPLSAIFTT
B32: SEQ ID NO 196 (designed binder)
chain: MLPAPKNLVVSRVTEDSARLSWTAPDAAFDSFNIHYVEWWVLGEAIVLTVPGSERSYDLTGLKPGTEYPVYIYGVKGGPKSIPLSAIFTT
B33: SEQ ID NO 46 (designed binder)
chain: MLPAPKNLVVSRVTEDSARLSWTAPDAAFDSFTIEYFEFTGTGEAIVLTVPGSERSYDLTGLKPGTEYYVSIYGVKGGLLSAPLSAIFTT
B34: SEQ ID NO 197 (designed binder)
chain: MLPAPKNLVVSRVTEDSARLSWTAPDAAFDSFKIDYLEINDNGEAIVLTVPGSERSYDLTGLKPGTEYPVYIWGVKGGYPSSPLSAIFTT
B35: SEQ ID NO 198 (designed binder)
chain: MLPAPKNLVVSRVTEDSARLSWTAPDAAFDSFLIAYNEDRKFGEAIVLTVPGSERSYDLTGLKPGTEYDVWIEGVKGGSLSFPLSAIFTT
B36: SEQ ID NO 199 (designed binder)
chain: MLPAPKNLVVSRVTEDSARLSWTAPDAAFDSFGIRYFEWWDLGEAIVLTVPGSERSYDPTGLKPGTEYNVTIQGVKGGFPSMPLSAIFTT
B37: SEQ ID NO 200 (designed binder)
chain: MLPAPKNLVVSRVTEDSARLSWTAPDAAFDSFYIEYYEWMHTGEAIVLTVPGSERSYDLTGLKPGTEYSVYIYGVKGGYPSSPLSAIFTT
B38: SEQ ID NO 201 (designed binder)
chain: MLPAPKNLVVSRVTEDSARLSWTAPDAAFDSFNIDYWETWVIGEAIVLTVPGSERSYDLTGLKPGTEYEVIIPGVKGGTISPPLSAIFTT
B39: SEQ ID NO 202 (designed binder)
chain: MLPAPKNLVVSRVTEDSARLSWTAPDAAFDSFYIDYLELTYSGEAIVLTVPGSERSYDLTGLKPGTEYYVYIYGVKGGYPSSPLSAIFTT
B40: SEQ ID NO 203 (designed binder)
chain: MLPAPKNLVVSRVTEDSARLSWTAPDAALDSFRIEYYESYGHGEAIVLTVPGSERSYDLTGLKPGTEYDVGIYGVKGGYYSRPLSAIFTT
B41: SEQ ID NO 204 (designed binder)
chain: MLPAPKNLVVSRVTEDSARLPWTAPDAAFDSFWISYYESVGYGEAIVLTVPGSERSYDLTGLKPGTEYYVDISGVKGGVYSLPLSAIFTT

What follows are binders tested against human serum albumin (human) (UniProt P02768) (assay: screening ELISA).
Chain of human serum albumin (human) (P02768 25-609 limits assumed): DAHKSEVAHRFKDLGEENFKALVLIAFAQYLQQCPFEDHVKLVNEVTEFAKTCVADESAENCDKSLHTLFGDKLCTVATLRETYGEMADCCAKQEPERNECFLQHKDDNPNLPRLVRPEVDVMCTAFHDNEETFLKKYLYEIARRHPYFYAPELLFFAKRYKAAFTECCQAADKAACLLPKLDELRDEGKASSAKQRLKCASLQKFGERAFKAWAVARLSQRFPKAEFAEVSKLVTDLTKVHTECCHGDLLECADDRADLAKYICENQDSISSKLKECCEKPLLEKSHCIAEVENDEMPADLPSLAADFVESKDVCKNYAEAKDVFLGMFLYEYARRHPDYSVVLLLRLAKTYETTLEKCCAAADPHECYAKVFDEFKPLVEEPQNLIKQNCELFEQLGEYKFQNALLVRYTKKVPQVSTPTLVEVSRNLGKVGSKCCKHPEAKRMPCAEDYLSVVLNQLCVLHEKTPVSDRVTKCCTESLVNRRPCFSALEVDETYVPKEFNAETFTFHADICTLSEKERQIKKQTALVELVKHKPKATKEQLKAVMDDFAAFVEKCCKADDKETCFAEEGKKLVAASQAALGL
With B1 the HSA was 65200.
In the case of B2, the HSA is reported as 5050.
For B3, the HSA was 8160.
Work on B4 yielded an HSA of 1950.
With B5 the HSA was 16800.
With B6 the HSA was 1900.
B7 showed an HSA of 3700.
B8 gave an HSA of 20800.
For B9, the HSA was 2200.
Binder B10 has an HSA of 1600.
Work on B11 yielded an HSA of 10400.
In the case of B12, the HSA is reported as 3920.
Binder B13 has an HSA of 2450.
B14 gave an HSA of 2250.
With B15 the HSA was 74700.
B16 gave an HSA of 33500.
B17 gave an HSA of 6000.
B18 gave an HSA of 2950.
B19 showed an HSA of 10700.
B20 gave an HSA of 9950.
With B21 the HSA was 1850.
B22 showed an HSA of 2880.
Binder B23 has an HSA of 7250.
Binder B24 has an HSA of 3350.
Binder B25 has an HSA of 67500.
B26 gave an HSA of 4900.
In the case of B27, the HSA is reported as 34000.
For B28, the HSA was 4100.
In the case of B29, the HSA is reported as 2500.
B30 showed an HSA of 17800.
B31 showed an HSA of 90200.
In the case of B32, the HSA is reported as 34600.
Binder B33 has an HSA of 3040.
B34 showed an HSA of 18900.
B35 showed an HSA of 3050.
B36 gave an HSA of 14400.
With B37 the HSA was 2100.
Work on B38 yielded an HSA of 11400.
In the case of B39, the HSA is reported as 2800.
B40 showed an HSA of 3300.
B41 showed an HSA of 24600.

Source: patent publication US20210145976A1
